Changes are numbered by the printed parent chain.
B1: v17427 (telisotuzumab paratope, HetFc, unmodified hinge, full-size IgG1 antibody) (antibody)
heavy 1: QVQLVQSGAEVKKPGASVKVSCKASGYIFTAYTMHWVRQAPGQGLEWMGWIKPNNGLANYAQKFQGRVTMTRDTSISTAYMELSRLRSDDTAVYYCARSEITTEFDYWGQGTLVTVSSASTKGPSVFPLAPSSKSTSGGTAALGCLVKDYFPEPVTVSWNSGALTSGVHTFPAVLQSSGLYSLSSVVTVPSSSLGTQTYICNVNHKPSNTKVDKKVEPKSCDKTHTCPPCPAPELLGGPSVFLFPPKPKDTLMISRTPEVTCVVVDVSHEDPEVKFNWYVDGVEVHNAKTKPREEQYNSTYRVVSVLTVLHQDWLNGKEYKCKVSNKALPAPIEKTISKAKGQPREPQVYVYPPSRDELTKNQVSLTCLVKGFYPSDIAVEWESNGQPENNYKTTPPVLDSDGSFALVSKLTVDKSRWQQGNVFSCSVMHEALHNHYTQKSLSLSPG
heavy 2: not shown
light: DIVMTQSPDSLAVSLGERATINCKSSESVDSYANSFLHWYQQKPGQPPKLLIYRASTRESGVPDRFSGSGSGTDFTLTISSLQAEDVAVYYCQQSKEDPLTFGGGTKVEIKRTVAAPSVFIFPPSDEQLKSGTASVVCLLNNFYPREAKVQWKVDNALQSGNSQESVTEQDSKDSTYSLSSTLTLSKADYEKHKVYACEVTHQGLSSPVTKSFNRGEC
notes: also called variant v17427; unconjugated HetFc variant
B2: v17427-Drug-Linker 002 DAR 6 (antibody)
heavy 1: B1 heavy 1
heavy 2: not shown
light: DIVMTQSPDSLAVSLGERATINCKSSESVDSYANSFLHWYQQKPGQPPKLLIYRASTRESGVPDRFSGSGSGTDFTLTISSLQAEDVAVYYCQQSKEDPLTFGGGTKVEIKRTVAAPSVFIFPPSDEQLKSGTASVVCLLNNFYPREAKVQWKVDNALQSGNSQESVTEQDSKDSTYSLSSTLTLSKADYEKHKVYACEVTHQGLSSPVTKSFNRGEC
modifications: Drug-Linker 002 stochastically conjugated to lysine residues of the antibody, about DAR 6; Drug-Linker 002 (auristatin analogue Compound 1) stochastically conjugated to lysine residues of the antibody, about DAR 6
notes: Antibody-drug conjugate of v17427
B3: v17427-Drug-Linker 002 DAR 4 (antibody)
heavy 1: B1 heavy 1
heavy 2: not shown
light: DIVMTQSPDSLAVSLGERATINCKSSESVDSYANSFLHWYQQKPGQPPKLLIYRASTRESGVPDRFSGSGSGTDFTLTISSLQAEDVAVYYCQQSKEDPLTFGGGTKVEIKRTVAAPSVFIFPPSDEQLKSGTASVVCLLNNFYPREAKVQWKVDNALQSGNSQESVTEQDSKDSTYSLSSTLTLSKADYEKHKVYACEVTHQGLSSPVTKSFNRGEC
modifications: Drug-Linker 002 stochastically conjugated to lysine residues of the antibody, about DAR 4; Drug-Linker 002 (auristatin analogue Compound 1) stochastically conjugated to lysine residues of the antibody, about DAR 4
notes: as for B2
B4: v32634 (telisotuzumab paratope, HomoFc, unmodified hinge, full-size IgG1 antibody) (antibody, V domains shown)
VH: QVQLVQSGAEVKKPGASVKVSCKASGYIFTAYTMHWVRQAPGQGLEWMGWIKPNNGLANYAQKFQGRVTMTRDTSISTAYMELSRLRSDDTAVYYCARSEITTEFDYWGQGTLVTVSS
VL: DIVMTQSPDSLAVSLGERATINCKSSESVDSYANSFLHWYQQKPGQPPKLLIYRASTRESGVPDRFSGSGSGTDFTLTISSLQAEDVAVYYCQQSKEDPLTFGGGTKVEIKR
notes: also called variant v32634; unconjugated HomoFc variant
B5: v29001 (telisotuzumab paratope, HetFc, unmodified hinge, two cysteine insertions between T299 and Y300) (antibody, human IgG1, kappa)
heavy 1: QVQLVQSGAEVKKPGASVKVSCKASGYIFTAYTMHWVRQAPGQGLEWMGWIKPNNGLANYAQKFQGRVTMTRDTSISTAYMELSRLRSDDTAVYYCARSEITTEFDYWGQGTLVTVSSASTKGPSVFPLAPSSKSTSGGTAALGCLVKDYFPEPVTVSWNSGALTSGVHTFPAVLQSSGLYSLSSVVTVPSSSLGTQTYICNVNHKPSNTKVDKKVEPKSCDKTHTCPPCPAPELLGGPSVFLFPPKPKDTLMISRTPEVTCVVVDVSHEDPEVKFNWYVDGVEVHNAKTKPREEQYNSTCYRVVSVLTVLHQDWLNGKEYKCKVSNKALPAPIEKTISKAKGQPREPQVYVYPPSRDELTKNQVSLTCLVKGFYPSDIAVEWESNGQPENNYKTTPPVLDSDGSFALVSKLTVDKSRWQQGNVFSCSVMHEALHNHYTQKSLSLSPG
heavy 2: B5 heavy 1 with Y353L, T368L, K394L, T396W, A407F, V409Y
light: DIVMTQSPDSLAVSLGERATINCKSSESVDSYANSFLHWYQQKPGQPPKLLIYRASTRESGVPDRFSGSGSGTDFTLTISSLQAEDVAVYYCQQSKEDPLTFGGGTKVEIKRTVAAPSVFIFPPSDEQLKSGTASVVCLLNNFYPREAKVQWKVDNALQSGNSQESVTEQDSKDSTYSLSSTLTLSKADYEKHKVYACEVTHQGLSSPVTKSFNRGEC
notes: also called variant v29001; cysteine insertion variant v29001
B6: v29001-Drug-Linker 004 DAR 6 (antibody, human IgG1, kappa)
heavy 1: B5 heavy 1
heavy 2: B5 heavy 1 with Y353L, T368L, K394L, T396W, A407F, V409Y
light: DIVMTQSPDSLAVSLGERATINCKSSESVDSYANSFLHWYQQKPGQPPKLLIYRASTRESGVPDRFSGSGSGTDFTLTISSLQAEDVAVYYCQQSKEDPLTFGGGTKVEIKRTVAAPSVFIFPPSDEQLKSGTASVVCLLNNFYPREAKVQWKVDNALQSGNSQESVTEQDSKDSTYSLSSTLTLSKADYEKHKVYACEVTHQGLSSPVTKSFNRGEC
modifications: trivalent Drug-Linker 004 on the cysteine inserted between T299 and Y300 (EU); trivalent Drug-Linker 004 (three Compound 1) on the cysteine inserted between T299 and Y300 (EU)
notes: Site-specific cysteine-conjugated antibody-drug conjugate of v29001
B7: v29001-Drug-Linker 003 DAR 4 (antibody, human IgG1, kappa)
heavy 1: B5 heavy 1
heavy 2: B5 heavy 1 with Y353L, T368L, K394L, T396W, A407F, V409Y
light: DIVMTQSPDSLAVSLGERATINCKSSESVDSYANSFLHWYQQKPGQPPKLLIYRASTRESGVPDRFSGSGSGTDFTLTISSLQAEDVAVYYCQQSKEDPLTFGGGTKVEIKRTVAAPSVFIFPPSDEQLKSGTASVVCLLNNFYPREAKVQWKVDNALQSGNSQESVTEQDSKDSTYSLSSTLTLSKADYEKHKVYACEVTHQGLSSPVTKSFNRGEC
modifications: bivalent Drug-Linker 003 on the cysteine inserted between T299 and Y300 (EU); bivalent Drug-Linker 003 (two Compound 1) on the cysteine inserted between T299 and Y300 (EU)
notes: as for B6
B8: v29001-Drug-Linker 001 DAR 2 (antibody, human IgG1, kappa)
heavy 1: B5 heavy 1
heavy 2: B5 heavy 1 with Y353L, T368L, K394L, T396W, A407F, V409Y
light: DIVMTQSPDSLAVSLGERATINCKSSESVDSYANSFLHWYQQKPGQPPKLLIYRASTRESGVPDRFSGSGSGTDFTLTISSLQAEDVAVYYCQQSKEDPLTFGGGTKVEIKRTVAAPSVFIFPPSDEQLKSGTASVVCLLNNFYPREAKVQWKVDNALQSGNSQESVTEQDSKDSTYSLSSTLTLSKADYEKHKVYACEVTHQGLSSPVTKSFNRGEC
modifications: Drug-Linker 001 on the cysteine inserted between T299 and Y300 (EU); Drug-Linker 001 (auristatin analogue Compound 1) on the cysteine inserted between T299 and Y300 (EU)
notes: as for B6
B9: v32634-Drug-Linker 002 DAR6 (antibody, V domains shown)
VH: B4 VH
VL: B4 VL
modifications: Drug-Linker 002 stochastically conjugated to lysine residues of the antibody, about DAR 6; Drug-Linker 002 (auristatin analogue Compound 1) stochastically conjugated to lysine residues of the antibody, about DAR 6
notes: Antibody-drug conjugate of v32634
B10: v32634-Drug-Linker 002 DAR4 (antibody, V domains shown)
VH: B4 VH
VL: B4 VL
modifications: Drug-Linker 002 stochastically conjugated to lysine residues of the antibody, about DAR 4; Drug-Linker 002 (auristatin analogue Compound 1) stochastically conjugated to lysine residues of the antibody, about DAR 4
notes: as for B9

biological target: T1, c-Met (hepatocyte growth factor receptor, HGFR), endogenous on tumour cell lines (UniProt P08581 25-1390, limits assumed); experiment: apparent Kd, flow cytometry on H292 cells (endogenous cMet)
T1 construct: whole, on cells
T1 sequence (P08581 25-1390 limits assumed): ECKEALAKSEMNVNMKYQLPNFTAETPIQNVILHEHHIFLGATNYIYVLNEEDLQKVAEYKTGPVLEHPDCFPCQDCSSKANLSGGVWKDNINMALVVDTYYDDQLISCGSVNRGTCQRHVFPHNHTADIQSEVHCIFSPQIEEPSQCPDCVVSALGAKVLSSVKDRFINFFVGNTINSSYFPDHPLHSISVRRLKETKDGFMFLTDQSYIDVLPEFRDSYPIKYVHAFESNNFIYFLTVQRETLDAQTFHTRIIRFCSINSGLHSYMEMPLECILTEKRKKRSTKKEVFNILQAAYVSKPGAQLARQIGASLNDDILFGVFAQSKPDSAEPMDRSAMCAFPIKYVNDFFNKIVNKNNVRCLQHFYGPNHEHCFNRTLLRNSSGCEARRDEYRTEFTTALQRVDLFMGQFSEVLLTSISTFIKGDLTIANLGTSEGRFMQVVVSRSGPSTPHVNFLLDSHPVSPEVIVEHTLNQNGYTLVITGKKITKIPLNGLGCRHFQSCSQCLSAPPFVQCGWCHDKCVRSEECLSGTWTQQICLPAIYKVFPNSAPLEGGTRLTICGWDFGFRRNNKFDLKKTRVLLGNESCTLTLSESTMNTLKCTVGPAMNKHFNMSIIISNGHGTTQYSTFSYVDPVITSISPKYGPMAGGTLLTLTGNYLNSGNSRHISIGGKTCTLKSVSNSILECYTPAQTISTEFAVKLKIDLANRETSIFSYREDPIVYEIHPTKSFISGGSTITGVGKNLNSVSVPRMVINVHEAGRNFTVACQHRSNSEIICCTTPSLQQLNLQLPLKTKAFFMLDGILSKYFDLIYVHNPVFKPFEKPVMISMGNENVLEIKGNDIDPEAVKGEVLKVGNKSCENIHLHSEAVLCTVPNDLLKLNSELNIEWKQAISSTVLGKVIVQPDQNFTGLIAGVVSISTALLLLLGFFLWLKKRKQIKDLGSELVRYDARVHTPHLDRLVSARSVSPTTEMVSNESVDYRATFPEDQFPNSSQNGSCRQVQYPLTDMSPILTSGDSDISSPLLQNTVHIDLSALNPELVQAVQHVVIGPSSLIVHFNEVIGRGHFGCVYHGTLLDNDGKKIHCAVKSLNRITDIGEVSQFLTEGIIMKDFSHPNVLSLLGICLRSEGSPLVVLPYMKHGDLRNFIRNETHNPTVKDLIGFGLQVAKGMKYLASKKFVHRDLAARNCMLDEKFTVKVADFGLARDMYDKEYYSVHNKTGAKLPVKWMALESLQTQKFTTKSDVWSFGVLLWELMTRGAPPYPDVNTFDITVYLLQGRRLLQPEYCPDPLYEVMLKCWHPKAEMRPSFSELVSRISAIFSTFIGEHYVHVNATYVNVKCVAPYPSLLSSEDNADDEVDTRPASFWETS
Description: (§1) Briefly, cells were seeded at 50,000 cells/well in V-bottom 96-well plates and treated with antibody for 24 hours at 4° C. to prevent internalization. Following incubation, cells were washed and stained with anti-human IgG Fc AF647 conjugate (Jackson ImmunoResearch Laboratories, Inc., West Grove, PA; Cat. No. 109-605-098) at 4° C. for 30 min. Following incubation and washing, fluorescence was detected by flow cytometry on a BD LSRFortessa™ Cell Analyzer (BD Biosciences, Franklin Lake, NJ) with 1,000 minimum events collected per well. AF647/APC-A GeoMean (fluorescence signal geometric mean, proportional to anti-Human AF647 binding) in live cell population was plotted using GraphPad Prism Version 8 (GraphPad Software, San Diego, CA).

Binder | Kd [nM]
B1 | 0.03
B2 | 0.05
B3 | 0.04
B4 | 0.02

biological target: T1, c-Met (hepatocyte growth factor …); experiment: as above; remark: another data set of the same source
Description: as §1
(§2) Cellular binding was determined as described in Example 10.

Binder | Kd [nM]
B5 | 0.024
B6 | 0.028
B7 | 0.03
B8 | 0.064
B1 | 0.026
B2 | 0.047
B3 | 0.04

biological target: T1, c-Met (hepatocyte growth factor …); experiment: apparent Kd, flow cytometry on SNU-5 cells (endogenous cMet)
Description: as §1

Binder | Kd [nM]
B1 | 0.33
B2 | 0.43
B3 | 0.43
B4 | 0.59
B9 | 0.71
B10 | 0.46

biological target: T1, c-Met (hepatocyte growth factor …); experiment: as above; remark: another data set of the same source
Description: as §1, §2

Binder | Kd [nM]
B5 | 0.428
B6 | 0.615
B7 | 1.13
B8 | 0.584
B1 | 0.328
B2 | 0.435
B3 | 0.428

biological target: T1, c-Met (hepatocyte growth factor …); experiment: flow cytometry on H292 cells (endogenous cMet), as in Example 10
Description: as §1, §2

Binder | Bmax
B5 | 2040 AF647 GeoMean fluorescence
B6 | 2010 AF647 GeoMean fluorescence
B7 | 2048 AF647 GeoMean fluorescence
B8 | 2070 AF647 GeoMean fluorescence
B1 | 2120 AF647 GeoMean fluorescence
B2 | 2150 AF647 GeoMean fluorescence
B3 | 2120 AF647 GeoMean fluorescence

biological target: T1, c-Met (hepatocyte growth factor …); experiment: flow cytometry on SNU-5 cells (endogenous cMet), as in Example 10
Description: as §1, §2

Binder | Bmax
B5 | 32100 AF647 GeoMean fluorescence
B6 | 37700 AF647 GeoMean fluorescence
B7 | 38600 AF647 GeoMean fluorescence
B8 | 35800 AF647 GeoMean fluorescence
B1 | 34800 AF647 GeoMean fluorescence
B2 | 33500 AF647 GeoMean fluorescence
B3 | 34100 AF647 GeoMean fluorescence

biological target: T1, c-Met (hepatocyte growth factor …); experiment: flow cytometry on H292 cells (endogenous cMet), 24 h at 4 C, anti-human IgG Fc AF647
Description: as §1

Binder | Bmax
B1 | 2120 AF647 GeoMean fluorescence
B2 | 2150 AF647 GeoMean fluorescence
B3 | 2120 AF647 GeoMean fluorescence
B4 | 2240 AF647 GeoMean fluorescence
B9 | 2200 AF647 GeoMean fluorescence
B10 | 2130 AF647 GeoMean fluorescence

biological target: T1, c-Met (hepatocyte growth factor …); experiment: flow cytometry on SNU-5 cells (endogenous cMet), 24 h at 4 C, anti-human IgG Fc AF647
Description: as §1

Binder | Bmax
B1 | 34800 AF647 GeoMean fluorescence
B2 | 33500 AF647 GeoMean fluorescence
B3 | 34100 AF647 GeoMean fluorescence
B4 | 37200 AF647 GeoMean fluorescence
B9 | 41100 AF647 GeoMean fluorescence
B10 | 33700 AF647 GeoMean fluorescence
